Test results from patent US7078382B1, “Modulation of eNOS activity and therapeutic uses thereof” (Genentech, Inc., priority 1999, dated 2006).
Entries after “also recorded” stand apart in the source; their conditions may differ.

Tests used:
KDR receptor = KDR receptor (Homo sapiens, UniProt P35968); test: KDR receptor binding ELISA (inhibition of biotinylated native VEGF (8-109) binding); conditions: second figure of the cell, ratio to native VEGF (8-109)
Method: Receptor binding assays were performed in 96-well immunoplates (Maxisorp, Nunc-Immunoplate, Nalge Nunc International, Rochester, N.Y.). Each well was coated with 100 μl of a solution containing 8 μg/ml of a monoclonal antibody to KDR known as MAKD5 (Genentech, South San Francisco, Calif.) in 50 mM carbonate buffer at pH 9.6 and incubated at 4° C. overnight. The supernatant was discarded, the wells were washed three times in washing buffer (0.05% Tween 20 in PBS), and the plate was blocked (150 μl per well) with block buffer (0.5% BSA, 0.01% thimerosal in PBS) at room temperature for one hour. The supernatant was discarded, and the wells were washed.
(§1) Aliquots of this mixture (100 μl) were added to the precoated microtiter wells and the plate was incubated for 1 hour at room temperature. […] The wells were then incubated with 3, 3′, 5,5′-tetramethyl benzidine (0.2 gram/liter; Kirkegaard & Perry Laboratories, Gaithersburg, Md.) for about 10 minutes at room temperature. Absorbance was read at 450 nm on a Vmax plate reader (Molecular Devices, Menlo Park, Calif.).
(§2) Titration curves were fit with a four-parameter nonlinear regression curve-fitting program (KaleidaGraph, Synergy Software, Reading, Pa.).

Flt-1 receptor [1] = test: Flt-1 receptor binding ELISA (inhibition of biotinylated native VEGF binding to Flt-IgG); conditions: second figure of the cell, ratio to native VEGF (8-109)
Flt-1 receptor, sequence (P17948 27-327 limits assumed): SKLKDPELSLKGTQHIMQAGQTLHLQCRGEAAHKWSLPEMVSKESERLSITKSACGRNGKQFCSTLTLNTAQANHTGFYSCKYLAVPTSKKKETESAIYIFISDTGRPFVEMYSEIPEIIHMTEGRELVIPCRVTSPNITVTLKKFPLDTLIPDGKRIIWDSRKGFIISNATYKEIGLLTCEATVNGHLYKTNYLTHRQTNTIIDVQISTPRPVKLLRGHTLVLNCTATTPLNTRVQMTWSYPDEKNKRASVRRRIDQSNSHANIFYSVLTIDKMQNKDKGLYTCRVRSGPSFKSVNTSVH
Method: Receptor binding assays were performed in 96-well immunoplates (Maxisorp, Nunc-Immunoplate, Nalge Nunc International, Rochester, N.Y.). Each well was coated with 100 μl of a solution containing 2 μg/ml of rabbit F(ab′)2 to human IgG Fc (Jackson ImmunoResearch, West Grove, Pa.) in 50 mM carbonate buffer at pH 9.6 and incubated at 4° C. overnight. The supernatant was then discarded, the wells were washed three times in washing buffer (0.05% Tween 20 in PBS), and the plate was blocked (150 μl per well) with block buffer (0.5% BSA, 0.01% thimerosal in PBS) at room temperature for one hour. The supernatant was discarded, and the wells were washed.
The wells were filled with 100 μl of a solution containing Flt-IgG (a chimeric Flt-human Fc molecule) at 50 ng/ml in assay buffer (0.5% BSA, 0.05% Tween 20 in PBS). The wells were incubated at room temperature for 1 hour and then washed three times in wash buffer (0.05% Tween 20 in PBS).
as §1, with “the” for “this”, “2 hours” for “1 hour”, “g/liter,” for “gram/liter;”
as §2

Flt-1 receptor [2] = target: Flt-1 receptor (Homo sapiens, UniProt P17948); test: RIA binding assay, FLT-1 receptor; conditions: relative to Native VEGF 165
Flt-1 receptor (Homo sapiens, UniProt P17948), sequence (P17948 27-1338): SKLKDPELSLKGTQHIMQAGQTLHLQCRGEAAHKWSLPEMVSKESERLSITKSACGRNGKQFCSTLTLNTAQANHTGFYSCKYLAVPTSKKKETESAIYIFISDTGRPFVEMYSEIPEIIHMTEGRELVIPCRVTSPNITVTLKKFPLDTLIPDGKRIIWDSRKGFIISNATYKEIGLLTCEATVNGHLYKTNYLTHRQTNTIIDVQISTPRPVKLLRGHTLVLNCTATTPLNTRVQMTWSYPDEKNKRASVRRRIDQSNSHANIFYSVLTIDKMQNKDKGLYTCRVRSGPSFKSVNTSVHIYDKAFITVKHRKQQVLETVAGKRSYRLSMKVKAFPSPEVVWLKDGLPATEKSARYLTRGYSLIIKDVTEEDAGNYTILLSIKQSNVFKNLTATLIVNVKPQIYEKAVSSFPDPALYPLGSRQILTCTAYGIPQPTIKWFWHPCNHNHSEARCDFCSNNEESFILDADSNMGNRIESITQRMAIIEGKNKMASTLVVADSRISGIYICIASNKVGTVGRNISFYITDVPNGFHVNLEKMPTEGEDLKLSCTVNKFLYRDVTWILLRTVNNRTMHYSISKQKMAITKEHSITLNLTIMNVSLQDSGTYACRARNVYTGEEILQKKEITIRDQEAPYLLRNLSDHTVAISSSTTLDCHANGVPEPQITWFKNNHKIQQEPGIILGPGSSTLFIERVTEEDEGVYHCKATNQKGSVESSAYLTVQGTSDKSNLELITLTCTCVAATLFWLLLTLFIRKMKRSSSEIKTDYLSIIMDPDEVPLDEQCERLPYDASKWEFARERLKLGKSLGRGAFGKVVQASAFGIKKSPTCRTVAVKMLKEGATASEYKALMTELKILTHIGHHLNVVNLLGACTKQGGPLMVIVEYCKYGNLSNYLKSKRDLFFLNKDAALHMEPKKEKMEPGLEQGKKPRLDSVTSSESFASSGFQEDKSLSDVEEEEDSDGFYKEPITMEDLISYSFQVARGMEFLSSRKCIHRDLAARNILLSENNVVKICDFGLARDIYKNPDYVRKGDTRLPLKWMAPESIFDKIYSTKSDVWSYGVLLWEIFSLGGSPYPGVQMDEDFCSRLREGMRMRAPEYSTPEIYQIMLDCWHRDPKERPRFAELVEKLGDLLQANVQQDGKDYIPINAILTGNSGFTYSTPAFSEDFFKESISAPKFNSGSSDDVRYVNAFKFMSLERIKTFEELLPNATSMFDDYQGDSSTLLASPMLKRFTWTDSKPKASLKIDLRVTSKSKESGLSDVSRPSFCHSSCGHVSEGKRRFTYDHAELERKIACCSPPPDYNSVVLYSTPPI
Source text: The results are shown below in Table 6.

eNOS expression = eNOS expression by Western blot in ACE cells; assay type: cell-based, bovine
Method: At the end of incubation, total cell lysates were prepared, and eNOS protein levels were determined by Western blot analysis.
Bovine adrenal cortex capillary endothelial cells (ACE) were prepared and maintained as previously described (Ferrara et.al., 1989 Biochem. Biophys. Res. Commun. 161:851–858). Briefly, cells were plated onto 6-well tissue culture plates (Costar) and grown in low glucose Dulbecco's modified Eagle's medium, supplemented with 2 mM […] (Life Technologies), 10% bovine calf serum (HyClone Lab., Inc.) and 100 μg/ml Penicillin/Streptomycin (Life Technologies). ACE cells were used between passages 4 and 8.
Medium was changed every 24 hours.
The methods for cell lysis and Western blot (WB) have been described in Shen et al., 1998 J. Biol. Chem. 273:29979–29985. A monoclonal anti-eNOS antibody was used at 1:2500 to probe eNOS protein. […] The protein bands were scanned by a densitometer and the relative intensities were quantified using IMAGEQUANT® software (Molecular Dynamics).
Confluent ACE cells were incubated with 500 pM rhVEGF. […] Equal amounts of protein were denatured under reducing conditions and separated in a 10% Novex mini gel and transferred to PVDF membrane. eNOS protein signals were visualized by ECL and quantified using densitometry.

KDR receptor, sequence (P35968 20-327 limits assumed): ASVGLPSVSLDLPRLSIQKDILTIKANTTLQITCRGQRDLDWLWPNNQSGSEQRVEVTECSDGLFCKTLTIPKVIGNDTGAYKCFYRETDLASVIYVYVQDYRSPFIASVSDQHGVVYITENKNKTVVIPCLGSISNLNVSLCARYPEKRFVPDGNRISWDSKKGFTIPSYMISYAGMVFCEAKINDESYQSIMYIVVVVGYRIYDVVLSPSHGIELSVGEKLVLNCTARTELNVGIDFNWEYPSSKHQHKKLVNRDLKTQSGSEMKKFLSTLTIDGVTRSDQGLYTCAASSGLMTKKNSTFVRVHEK

| Relative Binding Affinity KDR Receptor (KDR receptor) | Relative Binding Affinity FLT-1 Receptor (Flt-1 receptor [1]) | Molecule | further results |
| --- | --- | --- | --- |
| 4 nM/4 | />12000 | LK-VRB-25s: VEGF (1-109) variant, D63S/L66R/M18E/Y21L/Q22R/Y25S (protein) APMAEGGGQNHHEVVKFEDVLRRSSCHPIETLVDIFQEYPDEIEYIFKPSCVPLMRCGGCCNSEGRECVPTEESNITMQIMRIKPHQGQHIGEMSFLQHNKCECRPKKD | – |
| 23 nM/23 | />25000 | LK-VRB-26s: VEGF (1-109) variant, G65M/L66R/M18E/Y21L/Q22R/Y25S (protein) APMAEGGGQNHHEVVKFEDVLRRSSCHPIETLVDIFQEYPDEIEYIFKPSCVPLMRCGGCCNDEMRECVPTEESNITMQIMRIKPHQGQHIGEMSFLQHNKCECRPKKD | – |
| 1 nM/1 | – | LK-VRB-1s*: VEGF (1-109) variant, M18E/Y21L/Q22R/Y25S (protein) APMAEGGGQNHHEVVKFEDVLRRSSCHPIETLVDIFQEYPDEIEYIFKPSCVPLMRCGGCCNDEGLECVPTEESNITMQIMRIKPHQGQHIGEMSFLQHNKCECRPKKD | Relative Binding Affinity FLT-1 Receptor (Flt-1 receptor [2]): 14,000 |

Second part, the molecule before the results:

| Molecule | Relative Binding Affinity KDR Receptor (KDR receptor) | Relative Binding Affinity FLT-1 Receptor (Flt-1 receptor [1]) | further results |
| --- | --- | --- | --- |
| TGF-beta2: recombinant human transforming growth factor (protein, UniProt P61812 303-414, looked up, Transforming growth factor beta-2) Transforming growth factor …: ALDAAYCFRNVQDNCCLRPLYIDFKRDLGWKWIHEPKGYNANFCAGACPYLWSSDTQHSRVLSLYNTINPEASASPCCVSQDLEPLTILYYIGKTPKIEQLSNMIVKSCKCS | – | – | eNOS expression with angiogenic factors (eNOS expression; 500 pM, 2 days): reduced endogenous eNOS expression |
| PLGF: recombinant human placental growth factor (protein, UniProt P49763 19-221, looked up) Placenta growth factor: LPAVPPQQWALSAGNGSSEVEVVPFQEVWGRSYCRALERLVDVVSEYPSEVEHMFSPSCVSLLRCTGCCGDENLHCVPVETANVTMQLLKIRSGDRPSYVELTFSQHVRCECRHSPGRQSPDMPGDFRADAPSFLPPRRSLPMLFRMEWGCALTGSQSAVWPSSPVPEEIPRMHPGRNGKKQQRKPLREKMKPERCGDAVPRR | – | – | eNOS expression with VEGF forms and receptor-selective variants (eNOS expression; equal concentrations, two days): had no effect; also recorded: did not |
